Reference: IntAct's records for PubMed 31515488

B1: Tektin-4 (Homo sapiens), Q8WW24 (parent)
chain: MAQTVPPCELPCKEYDVARNTGAYTSSGLATASFRTSKYLLEEWFQNCYARYHQAFADRDQSERQRHESQQLATETQALAQRTQQDSTRTVGERLQDTHSWKSELQREMEALAAETNLLLAQKQRLERALDATEVPFSITTDNLQCRERREHPNLVRDHVETELLKEAELIRNIQELLKRTIMQAVSQIRLNREHKETCEMDWSDKMEAYNIDETCGRHHSQSTEVQAHPYSTTFQESASTPETRAKFTQDNLCRAQRERLASANLRVLVDCILRDTSEDLRLQCDAVNLAFGRRCEELEDARYKLHHHLHKTLREITDQEHNVAALKQAIKDKEAPLHVAQTRLYLRSHRPNMELCRDAAQFRLLSEVEELNMSLTALREKLLEAEQSLRNLEDIHMSLEKDIAAMTNSLFIDRQKCMAHRTRYPTILQLAGYQ
B2: Protein phosphatase 1 regulatory inhibitor subunit 16B (Homo sapiens), Q96T49 (parent)
chain: MASHVDLLTELQLLEKVPTLERLRAAQKRRAQQLKKWAQYEQDLQHRKRKHERKRSTGGRRKKVSFEASVALLEASLRNDAEEVRYFLKNKVSPDLCNEDGLTALHQCCIDNFEEIVKLLLSHGANVNAKDNELWTPLHAAATCGHINLVKILVQYGADLLAVNSDGNMPYDLCEDEPTLDVIETCMAYQGITQEKINEMRVAPEQQMIADIHCMIAAGQDLDWIDAQGATLLHIAGANGYLRAAELLLDHGVRVDVKDWDGWEPLHAAAFWGQMQMAELLVSHGASLSARTSMDEMPIDLCEEEEFKVLLLELKHKHDVIMKSQLRHKSSLSRRTSSAGSRGKVVRRASLSDRTNLYRKEYEGEAILWQRSAAEDQRTSTYNGDIRETRTDQENKDPNPRLEKPVLLSEFPTKIPRGELDMPVENGLRAPVSAYQYALANGDVWKVHEVPDYSMAYGNPGVADATPPWSSYKEQSPQTLLELKRQRAAAKLLSHPFLSTHLGSSMARTGESSSEGKAPLIGGRTSPYSSNGTSVYYTVTSGDPPLLKFKAPIEEMEEKVHGCCRIS
B3: AP-4 complex accessory subunit RUSC1 (Homo sapiens), Q9BVN2 (parent)
chain: MLSPQRALLCNLNHIHLQHVSLGLHLSRRPELQEGPLSTPPPPGDTGGKESRGPCSGTLVDANSNSPAVPCRCCQEHGPGLENRQDPSQEEEGAASPSDPGCSSSLSSCSDLSPDESPVSVYLRDLPGDEDAHPQPSIIPLEQGSPLASAGPGTCSPDSFCCSPDSCSGASSSPDPGLDSNCNALTTCQDVPSPGLEEEDERAEQDLPTSELLEADDGKIDAGKTEPSWKINPIWKIDTEKTKAEWKTTENNNTGWKNNGNVNSSWKSEPEKFDSGWKTNTRITDSGSKTDAGKIDGGWRSDVSEEPVPHRTITSFHELAQKRKRGPGLPLVPQAKKDRSDWLIVFSPDTELPPSGSPGGSSAPPREVTTFKELRSRSRAPAPPVPPRDPPVGWALVPPRPPPPPVPPRRKKNRPGLQPIAEGQSEEGRAVSPAAGEEAPAAKEPGAQAGLEVRSSWSFAGVPGAQRLWMAEAQSGTGQLQEQKKGLLIAVSVSVDKIISHFGAARNLVQKAQLGDSRLSPDVGHLVLTTLCPALHALVADGLKPFRKDLITGQRRSSPWSVVEASVKPGSSTRSLGTLYSQVSRLAPLSSSRSRFHAFILGLLNTKQLELWFSSLQEDAGLLSLLYLPTGFFSLARGGCPSLSTELLLLLQPLSVLTFHLDLLFEHHHHLPLGPPQAPAPPGPPPALQQTMQAMLHFGGRLAQSLRGTSKEAASDPSDSPNLPTPGSWWEQLTQASRVYASGGTEGFPLSRWAPGRHGTAAEEGAQERPLPTDEMAPGRGLWLGRLFGVPGGPAENENGALKSRRPSSWLPPTVSVLALVKRGAPPEMPSPQELEASAPRMVQTHRAVRALCDHTAARPDQLSFRRGEVLRVITTVDEDWLRCGRDGMEGLVPVGYTSLVL

Variants of: B1
Conditions: with trip6_human TRIP6, Q15654
trip6_human TRIP6, Q15654, sequence (Q15654 whole entry): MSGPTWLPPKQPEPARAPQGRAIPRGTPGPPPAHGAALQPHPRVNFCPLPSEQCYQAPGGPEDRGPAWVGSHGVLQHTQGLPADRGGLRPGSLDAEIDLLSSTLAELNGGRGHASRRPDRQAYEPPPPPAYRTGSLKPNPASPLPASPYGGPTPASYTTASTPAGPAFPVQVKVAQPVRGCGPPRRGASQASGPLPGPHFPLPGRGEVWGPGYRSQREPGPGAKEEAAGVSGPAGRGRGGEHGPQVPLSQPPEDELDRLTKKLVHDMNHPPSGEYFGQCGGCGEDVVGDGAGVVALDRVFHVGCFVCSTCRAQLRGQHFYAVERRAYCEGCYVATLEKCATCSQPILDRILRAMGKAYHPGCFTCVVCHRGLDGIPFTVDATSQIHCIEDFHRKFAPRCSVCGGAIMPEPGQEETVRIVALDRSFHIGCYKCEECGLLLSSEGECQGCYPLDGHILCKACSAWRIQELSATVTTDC

effect of a mutation on the interaction | Variant
with no effect | S100G
with no effect | M374V
with no effect | T83M
with no effect | R64W

The next lines start with the variant.

Variant | effect of a mutation on the interaction
R255C | with no effect
R82C | with no effect

Variants of: B1
Conditions: with maga4_human MAGEA4, P43358
maga4_human MAGEA4, P43358, sequence (P43358 whole entry): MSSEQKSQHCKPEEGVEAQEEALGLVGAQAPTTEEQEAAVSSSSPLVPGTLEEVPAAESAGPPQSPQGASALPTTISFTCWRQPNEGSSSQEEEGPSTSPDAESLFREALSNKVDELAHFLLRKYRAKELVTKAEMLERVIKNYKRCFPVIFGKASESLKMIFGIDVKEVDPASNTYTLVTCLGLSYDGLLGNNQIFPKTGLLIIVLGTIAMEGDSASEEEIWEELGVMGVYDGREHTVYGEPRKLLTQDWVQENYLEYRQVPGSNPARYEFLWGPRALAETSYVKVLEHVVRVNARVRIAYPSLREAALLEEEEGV

effect of a mutation on the interaction | Variant
with no effect | S100G
with no effect | M374V
with no effect | T83M
with no effect | R64W

The remaining lines, values behind:

Variant | effect of a mutation on the interaction
R255C | with no effect
R82C | with no effect

Variants of: B1
Conditions: with atg5_human ATG5, Q9H1Y0
atg5_human ATG5, Q9H1Y0, sequence (Q9H1Y0 whole entry): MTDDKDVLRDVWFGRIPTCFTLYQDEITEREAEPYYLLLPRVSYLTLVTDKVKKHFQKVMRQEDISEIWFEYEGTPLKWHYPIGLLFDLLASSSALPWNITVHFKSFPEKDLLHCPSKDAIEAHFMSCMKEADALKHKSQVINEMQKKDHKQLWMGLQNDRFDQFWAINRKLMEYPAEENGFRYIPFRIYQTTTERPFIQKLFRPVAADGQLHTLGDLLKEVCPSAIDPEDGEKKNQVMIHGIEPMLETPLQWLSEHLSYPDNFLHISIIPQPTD

effect of a mutation on the interaction | Variant
with no effect | S100G
with no effect | M374T
with no effect | M374V

Continued, variant first:

Variant | effect of a mutation on the interaction
R255C | with no effect
R82C | with no effect
A80V | with no effect
D403N | with no effect

Variants of: B2
Conditions: with crx_human CRX

effect of a mutation on the interaction | Variant
with no effect | P519S

Variants of: B2
Conditions: with ikzf3_human IKZF3, Q9UKT9
ikzf3_human IKZF3, Q9UKT9, sequence (Q9UKT9 whole entry): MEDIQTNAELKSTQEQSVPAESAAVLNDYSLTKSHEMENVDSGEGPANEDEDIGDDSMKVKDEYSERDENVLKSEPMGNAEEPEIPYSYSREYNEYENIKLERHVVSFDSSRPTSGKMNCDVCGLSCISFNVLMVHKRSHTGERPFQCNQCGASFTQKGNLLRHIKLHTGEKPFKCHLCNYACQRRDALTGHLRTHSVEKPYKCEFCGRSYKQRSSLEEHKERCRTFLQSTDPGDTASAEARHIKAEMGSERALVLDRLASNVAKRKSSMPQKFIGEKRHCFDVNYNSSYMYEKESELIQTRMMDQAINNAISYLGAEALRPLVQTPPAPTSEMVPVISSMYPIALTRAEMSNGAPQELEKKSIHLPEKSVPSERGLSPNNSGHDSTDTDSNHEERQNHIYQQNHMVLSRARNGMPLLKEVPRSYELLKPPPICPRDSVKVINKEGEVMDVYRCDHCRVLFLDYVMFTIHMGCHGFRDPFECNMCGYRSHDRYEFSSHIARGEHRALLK

effect of a mutation on the interaction | Variant
with no effect | P519S

Variants of: B2
Conditions: with sf3b4_human SF3B4, Q15427
sf3b4_human SF3B4, Q15427, sequence (Q15427 whole entry): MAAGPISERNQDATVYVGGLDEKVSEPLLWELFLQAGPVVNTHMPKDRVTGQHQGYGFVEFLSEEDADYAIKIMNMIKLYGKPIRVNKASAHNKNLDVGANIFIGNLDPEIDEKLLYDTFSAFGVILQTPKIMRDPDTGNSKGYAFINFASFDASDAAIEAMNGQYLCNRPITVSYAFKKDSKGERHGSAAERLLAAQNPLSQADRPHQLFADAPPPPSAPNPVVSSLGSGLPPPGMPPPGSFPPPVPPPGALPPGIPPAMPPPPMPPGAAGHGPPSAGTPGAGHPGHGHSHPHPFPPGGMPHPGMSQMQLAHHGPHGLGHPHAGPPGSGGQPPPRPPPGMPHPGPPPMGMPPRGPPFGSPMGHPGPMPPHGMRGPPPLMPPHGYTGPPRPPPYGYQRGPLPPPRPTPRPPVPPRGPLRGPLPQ

effect of a mutation on the interaction | Variant
with no effect | P519S

Variants of: B3
Conditions: with rbpms_human RBPMS

effect of a mutation on the interaction | Variant
with no effect | A795T

Variants of: B3
Conditions: with pnma1_human PNMA1, Q8ND90
pnma1_human PNMA1, Q8ND90, sequence (Q8ND90 whole entry): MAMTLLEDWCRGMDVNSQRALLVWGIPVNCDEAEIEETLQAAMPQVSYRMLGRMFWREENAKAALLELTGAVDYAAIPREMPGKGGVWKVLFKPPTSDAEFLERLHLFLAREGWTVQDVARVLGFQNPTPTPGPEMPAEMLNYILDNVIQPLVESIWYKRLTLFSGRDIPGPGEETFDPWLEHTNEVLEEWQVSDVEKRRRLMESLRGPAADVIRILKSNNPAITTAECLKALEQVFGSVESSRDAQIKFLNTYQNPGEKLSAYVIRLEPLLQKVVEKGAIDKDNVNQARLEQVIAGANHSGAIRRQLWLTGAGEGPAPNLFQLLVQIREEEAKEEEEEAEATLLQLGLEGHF

effect of a mutation on the interaction | Variant
with no effect | V493A

Variants of: B3
Conditions: with fam9b_human FAM9B

effect of a mutation on the interaction | Variant
with no effect | V493A
